Data on two molecules can be found in patent publication US20240192215A1 (E AND S HEALTHCARE, published 2024).

Assay [1] addresses T1, Peptide_012 (human).
T1 construct: 15-mer on microarray; not native form, includes recombinant insert region
T1 peptide: HHHHHHHVKQIESKT
In words: peptide microarray, 5 ug/mL. As for the experimental part: (§1) 5, 1, 0.2, 0.04, 0.008 and 0.0016 μg/mL serial dilutions were incubated on a single multi-well microarray slide at 30° C. for 1 hour. The slide includes 21 individual mini-arrays (one mini-array per sample dilution).
(§2) DyLight 650 was used as a label. False-positive binding to a peptide was evaluated by performing one additional control incubation in which only a secondary antibody was applied on the same microarray slide. Before performing each step, the microarrays were washed with a washing buffer.

The target of assay [2] is T2, Peptide_013 (human).
T2 construct: 15-mer on microarray; not native form, includes recombinant insert region
T2 peptide: HHHHHHVKQIESKTA
In words: peptide microarray, 5 ug/mL. As for the experimental part:
as §1, §2

Assay [3] concerns the target T3, Peptide_014 (human).
T3 construct: 15-mer on microarray; not native form, includes recombinant insert region
T3 peptide: HHHHHVKQIESKTAF
In words: peptide microarray, 5 ug/mL. As for the experimental part:
as §1, §2

Assay [4] deals with T4, Peptide_015 (human).
T4 construct: 15-mer on microarray; not native form, includes recombinant insert region
T4 peptide: HHHHVKQIESKTAFQ
In words: peptide microarray, 5 ug/mL. As for the experimental part: as §1, §2

Assay [5] addresses T5, Peptide_018 (human).
T5 construct: 15-mer on microarray; not native form, includes recombinant insert region; also called HVKQIESKTAFQEAL
T5 peptide: HVKQIESKTAFQEAL
In words: peptide microarray, 5 ug/mL. The procedure: as §1, §2

In assay [6] the target is T6, Peptide_019 (human).
T6 construct: 15-mer of hTrx1 on microarray
T6 peptide: VKQIESKTAFQEALD
In words: peptide microarray, 5 ug/mL. As for the experimental part: as §1, §2

For assay [7], the target named is T7, Peptide_020 (human).
T7 construct: 15-mer of hTrx1 on microarray
T7 peptide: KQIESKTAFQEALDA
In words: peptide microarray, 5 ug/mL. The procedure: as §1, §2

Assay [8] concerns the target T8, Peptide_021 (human).
T8 construct: 15-mer of hTrx1 on microarray
T8 peptide: QIESKTAFQEALDAA
In words: peptide microarray, 5 ug/mL. The procedure: as §1, §2

Assay [9] addresses T9, Peptide_022 (human).
T9 construct: 15-mer of hTrx1 on microarray
T9 peptide: IESKTAFQEALDAAG
In words: peptide microarray, 5 ug/mL. As for the experimental part: as §1, §2

For assay [10], the target named is T10, Peptide_023 (human).
T10 construct: 15-mer of hTrx1 on microarray
T10 peptide: ESKTAFQEALDAAGD
In words: peptide microarray, 5 ug/mL. The procedure: as §1, §2

For assay [11], the target named is T11, Peptide_024 (human).
T11 construct: 15-mer of hTrx1 on microarray
T11 peptide: SKTAFQEALDAAGDK
In words: peptide microarray, 5 ug/mL. The procedure:
as §1, §2

Assay [12] addresses T12, Peptide_025 (human).
T12 construct: 15-mer of hTrx1 on microarray
T12 peptide: KTAFQEALDAAGDKL
In words: peptide microarray, 5 ug/mL. The procedure: as §1, §2

For assay [13], the target named is T13, Peptide_045 (human).
T13 construct: 15-mer of hTrx1 on microarray
T13 peptide: SATWCGPCKMIKPFF
In words: peptide microarray, 5 ug/mL. The procedure:
as §1, §2

The target of assay [14] is T14, Peptide_051 (human).
T14 construct: 15-mer of hTrx1 on microarray
T14 peptide: PCKMIKPFFHSLSEK
In words: peptide microarray, 5 ug/mL. As for the experimental part: as §1, §2

For assay [15], the target named is T15, Peptide_084 (human).
T15 construct: 15-mer of hTrx1 on microarray
T15 peptide: SECEVKCMPTFQFFK
In words: peptide microarray, 5 ug/mL. The procedure: as §1, §2

In assay [16] the target is T16, Peptide_085 (human).
T16 construct: 15-mer of hTrx1 on microarray
T16 peptide: ECEVKCMPTFQFFKK
In words: peptide microarray, 5 ug/mL. The procedure:
as §1, §2

In assay [17] the target is T17, Peptide_086 (human).
T17 construct: 15-mer of hTrx1 on microarray
T17 peptide: CEVKCMPTFQFFKKG
In words: peptide microarray, 5 ug/mL. The procedure: as §1, §2

Assay [18] deals with T18, Peptide_092 (human).
T18 construct: 15-mer of hTrx1 on microarray
T18 peptide: PTFQFFKKGQKVGEF
In words: peptide microarray, 5 ug/mL. As for the experimental part:
as §1, §2

The target in assay [19] is T19, Peptide_093 (human).
T19 construct: 15-mer of hTrx1 on microarray
T19 peptide: TFQFFKKGQKVGEFS
In words: peptide microarray, 5 ug/mL. As for the experimental part:
as §1, §2

In assay [20] the target is T20, Peptide_094 (human).
T20 construct: 15-mer of hTrx1 on microarray
T20 peptide: FQFFKKGQKVGEFSG
In words: peptide microarray, 5 ug/mL. The procedure:
as §1, §2

For assay [21], the target named is T21, Peptide_095 (human).
T21 construct: 15-mer of hTrx1 on microarray
T21 peptide: QFFKKGQKVGEFSGA
In words: peptide microarray, 5 ug/mL. As for the experimental part: as §1, §2

Assay [22] deals with T1, Peptide_012. In words: peptide microarray, 0.2 ug/mL. As for the experimental part: as §1, §2
Assay [23] concerns the target T6, Peptide_019. In words: peptide microarray, 0.2 ug/mL. As for the experimental part: as §1, §2
Assay [24] deals with T10, Peptide_023. In words: peptide microarray, 0.2 ug/mL. The procedure:
as §1, §2

Assay [25] has as its target T14, Peptide_051. In words: peptide microarray, 0.2 ug/mL. As for the experimental part:
as §1, §2

Assay [26] has as its target T22, Peptide_026.
T22 peptide: TAFQEALDAAGDKLV
In words: peptide microarray, anti-mouse IgG DyLight 650, MMC2 heatmap (Example 17). As for the experimental part:
as §1, §2
(§3) To visualize the obtained results and compare binding regions across individual cultures, as shown in FIGS. 21A to 21D, heatmap diagrams were calculated. In FIGS. 21A to 21D, the fluorescence intensity is expressed in a color-coded manner, white indicates no binding, and red indicates strong binding. For all evaluations, the MMC2-value of the average pixel fluorescence for each peptide was calculated.

Assay [27] concerns the target T23, Peptide_034.
T23 peptide: AAGDKLVVVDFSATW
The description is as above. As for the experimental part: as §1, §2, §3

In assay [28] the target is T24, Peptide_038.
T24 peptide: KLVVVDFSATWCGPC
The description is as above. As for the experimental part:
as §1, §2, §3

Assay [29] concerns the target T25, Peptide_043.
T25 peptide: DFSATWCGPCKMIKP
Described as above. The procedure: as §1, §2, §3

The target of assay [30] is T26, Peptide_059.
T26 peptide: FHSLSEKYSNVIFLE
Described as above. The procedure: as §1, §2, §3

Assay [31] concerns the target T27, Peptide_064.
T27 peptide: EKYSNVIFLEVDVDD
The assay is described as above. As for the experimental part:
as §1, §2, §3

Assay [32] has as its target T28, Peptide_089.
T28 peptide: KCMPTFQFFKKGQKV
Described as above. The procedure: as §1, §2, §3

Assay [33] addresses T29, Peptide_006.
T29 peptide: DVHSQHHHHHHHHVK
Described as above. As for the experimental part:
as §1, §2, §3

In assay [34] the target is T30, Peptide_004 (human).
T30 construct: 15-mer on microarray; not native form, recombinant insert region
T30 peptide: AADVHSQHHHHHHHH
In words: peptide microarray, 5 ug/mL. As for the experimental part: as §1, §2

The target of assay [35] is T31, Peptide_005 (human).
T31 construct: 15-mer on microarray; not native form, recombinant insert region
T31 peptide: ADVHSQHHHHHHHHV
In words: peptide microarray, 5 ug/mL. As for the experimental part:
as §1, §2

B1: monoclonal antibody B264 (antibody, mouse IgG1, kappa, V domains shown)
VH: QVQLQQSGAELARPGASVKMSCKASGYTFTSYTMHWVKQRPGQGLEWIGYINPTSDYTNYNQKFKDKATLTADKSSSTAYMQLSSLTSEDSAVYFCASEGGFLYYFDYWGQGTTLTVSS
VL: DVLMTQTPLSLPVSLGDQASISCRSSQSIVHSNGNTYLEWYLQKPGQSPKLLIYKVSNRFSGVPDRFSGSGSGTDFTLKISRVEAEDLGVYYCFQGSHVPYTFGGGTKLEIKR
notes: also called AB264; B264 (Trx1-mIgG1)
Take B1: the “signal (blank-control = 1)” value in [1] was determined as 4.49; in assay [2] it was 4.87; in assay [3], 6.9; in assay [4] it was 5.96; in assay [5], 6.15; in [6], 1.98. The “signal (blank-control = 1)” value in assay [7] stood at 2.41; in assay [8], 2.69; in assay [9], 5.54; in assay [10] it was 1.26; in [11], 6.09; in [12], 6.49. In addition, the “signal (blank-control = 1)” value worked out at 4.9 in [13]; 4.28 in assay [14]; 3.79 in assay [15]; 3.87 in assay [16]; 1.9 in assay [17]; 6.78 in assay [18]. In addition, the “signal (blank-control = 1)” value was 6.18 in assay [19]; 4.13 in assay [20]; 3.44 in assay [21]; 1.72 in assay [22]; 1.48 in assay [23]; 1.12 in assay [24]. Also, the “signal (blank-control = 1)” value in [25] was determined as 2.32. In addition, the binding result in assay [26] is on record as “no binding (tested: 5 ug/mL)”; in assay [27], “no binding (tested: 5 ug/mL)”; in assay [28], “binds”; in [29], “no binding (tested: 5 ug/mL)”; in assay [30] it was “no binding (tested: 5 ug/mL)”; in assay [31], “no binding (tested: 5 ug/mL)”. Moreover, the binding result in assay [32] is listed as “no binding (tested: 5 ug/mL)”; in assay [33], “binds”.

B2: monoclonal antibody B266-1 (antibody, human IgG1)
light: QIVLTQSPAIMSASPGEKVTMTCSASSRISYMYWYQQKPGTSPKRWIYDTSKLASGVPARFSGSGSGTSYSLTISTMEAEDAATYYCHQRSSYPTFGAGTKLELKSVAAPSVFIFPPSDEQLKSGTASVVCLLNNFYPREAKVQWKVDNALQSGNSQESVTEQDSKDSTYSLSSTLTLSKADYEKHKVYACEVTHQGLSSPVTKSFNRGEC
heavy: not shown
notes: B266 with the Fc part changed to human IgG1; also called B266-1 (Trx1-hIgG1); B266-1 (hTrx1-hIgG1)
B2: the “signal (blank-control = 1)” value in assay [34] was found to be 6.78; in assay [35], 7.63.
